Results: FireProtDB (doi:10.1021/bi00102a015)

Conditions: Rhodobacter capsulatus (strain ATCC BAA-309 / NBRC 16581 / SB1003); pH 7.5; 25 °C; GdnHCl; CD; Tris-HCl 20 mM; NaCl 40 mM; whole UniProt chain shown

B1: Cytochrome c2 wild type, P00094 (protein)
chain: MKISLTAATVAALVLAAPAFAGDAAKGEKEFNKCKTCHSIIAPDGTEIVKGAKTGPNLYGVVGRTAGTYPEFKYKDSIVALGASGFAWTEEDIATYVKDPGAFLKEKLDDKKAKTGMAFKLAKGGEDVAAYLASVVK
- denaturant m value: 2.7 kcal/mol/M
- denaturant midpoint (higher = more stable): 1.7 M
- unfolding free energy: 4.4 kcal/mol
